Measured values from article PMC7315649.

Biological target: human plasminogen (human)
Assay: SPR; BIAcore T100 at 25°C; plasminogen amine-coupled to a CM-5 chip (5.0 ng/mm^2); dispersin at 2.5–120 μM in HBS-P (10 mM HEPES pH 7.4, 150 mM NaCl, 0.005% P20) at 30 μL/min; 1:1 model

## recombinant dispersin (mature dispersin of enteroaggregative Escherichia coli strain 17-2) (from UniProt P43464 1-265) (natural protein)
  Kd: 282 nM
  koff: 0.0016 s⁻¹
  kon: 5680 M⁻¹ s⁻¹
